According to US20250289899A1 (Genmab, published 2025):

Legend:
[1] = molecular target: T1, human CD27, full length, on cells (T cells, transfected HEK293F cells, Daudi cells, NFκB-luc2/CD27 Jurkat … (human, UniProt P26842 20-240)); assay: flow cytometry on CD8+ T cells in human PBMC, FITC goat anti-human IgG F(ab')2, median FITC
T1 construct: Residues 1-19 are stated to be the signal peptide; also called TNFRSF7
T1 sequence: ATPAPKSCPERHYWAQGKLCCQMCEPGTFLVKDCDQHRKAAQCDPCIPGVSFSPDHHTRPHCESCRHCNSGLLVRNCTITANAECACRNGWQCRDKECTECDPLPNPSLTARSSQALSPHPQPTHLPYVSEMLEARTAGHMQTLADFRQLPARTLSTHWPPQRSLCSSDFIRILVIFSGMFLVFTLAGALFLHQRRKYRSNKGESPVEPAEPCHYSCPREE
Protocol: Binding of IgG1-CD27-A-P329R-E345R to CD27 on human healthy donor T cells was characterized in more detail using flow cytometry. Anti-HIV gp120 antibody variant IgG1-b12-P329R-E345R was used as non-binding control antibody (ctrl). Human PBMCs were isolated from buffy coats obtained from human healthy donors. PBMC (1×10⁵ cells/well) in FACS buffer were added to polystyrene 96-well round-bottom plates (Greiner bio-one, Cat #650101) and pelleted by centrifugation at 300×g for 3 min at 4° C. The cells were resuspended in 50 μL/well serial antibody dilutions in FACS buffer (range 0.0015 to 10 μg/mL in 3-fold dilution steps) and incubated for 30 min at 4° C. Cells were pelleted, washed twice with FACS buffer and incubated in 50 μL/well with FITC-conjugated secondary antibody (FITC AffiniPure F(ab′)₂ fragment goat anti-human IgG, F(ab′)₂ fragment specific, Jackson ImmunoResearch, Cat #109-096-097, diluted 1:100) for 30 min at 4° C. in the dark. […] The samples were measured by flow cytometry on an LSRFortessa (BD) flow cytometer and analyzed using FlowJo software. Binding curves were analyzed using non-linear regression (sigmoidal dose-response with variable slope) using GraphPad Prism 8 software.

[2] = molecular target: T2, recombinant His-tagged human FcγRIIb (human, UniProt P31994 43-217); assay: SPR (Biacore), His-tagged FcγRIIb captured on anti-His chip, antibody in solution, resonance units against antibody concentration
T2 construct: Bought; captured on anti-His chip; not shown: His tag
T2 sequence (looked up): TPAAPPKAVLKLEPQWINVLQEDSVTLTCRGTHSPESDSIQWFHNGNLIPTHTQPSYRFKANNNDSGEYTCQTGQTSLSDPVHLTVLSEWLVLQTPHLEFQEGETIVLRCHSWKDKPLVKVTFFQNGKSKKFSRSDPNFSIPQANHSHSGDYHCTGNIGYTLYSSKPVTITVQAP

[3] = molecular target: T3, recombinant His-tagged human FcγRIIa (167-Arg [R]) (human, UniProt P12318 34-218, limits assumed); assay: SPR (Biacore), His-tagged FcγRIIa-R captured on anti-His chip, antibody in solution, resonance units against antibody concentration
T3 construct: Bought; captured on anti-His chip; also called FcγRIIa-R; not shown: His tag
T3 sequence (looked up): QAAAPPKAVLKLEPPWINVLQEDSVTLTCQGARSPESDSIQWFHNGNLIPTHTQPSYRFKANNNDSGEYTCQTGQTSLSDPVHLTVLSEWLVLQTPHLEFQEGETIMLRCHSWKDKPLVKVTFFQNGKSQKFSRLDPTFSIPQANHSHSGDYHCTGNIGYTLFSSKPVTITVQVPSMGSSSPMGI

[4] = molecular target: T4, human C1q (from normal human serum) (human, UniProt P02745 23-245; P02746 28-253; P02747 29-245); assay: flow cytometry, C1q (20% normal human serum) on human T cells pre-incubated with the antibody, FITC rabbit anti-human C1q, median MFI FITC; antibody concentration varied
T4 construct: 20% normal human serum was the source of C1q
T4 sequence (P02745 23-245 limits assumed, chain 1 of 3): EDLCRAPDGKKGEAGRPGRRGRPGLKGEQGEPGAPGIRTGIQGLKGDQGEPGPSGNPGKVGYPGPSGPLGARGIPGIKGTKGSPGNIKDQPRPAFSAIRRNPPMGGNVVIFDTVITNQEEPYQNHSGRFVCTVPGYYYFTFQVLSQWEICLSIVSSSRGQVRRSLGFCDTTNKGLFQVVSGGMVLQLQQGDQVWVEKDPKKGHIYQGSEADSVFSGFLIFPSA
T4 sequence (P02746 28-253 limits assumed, chain 2 of 3): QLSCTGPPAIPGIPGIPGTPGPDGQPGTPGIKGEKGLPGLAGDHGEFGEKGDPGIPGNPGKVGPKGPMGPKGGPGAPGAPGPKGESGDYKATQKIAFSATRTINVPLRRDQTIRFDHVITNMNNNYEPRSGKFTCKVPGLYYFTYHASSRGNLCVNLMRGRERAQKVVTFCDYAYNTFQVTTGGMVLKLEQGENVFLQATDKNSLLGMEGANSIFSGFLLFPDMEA
T4 sequence (P02747 29-245 limits assumed, chain 3 of 3): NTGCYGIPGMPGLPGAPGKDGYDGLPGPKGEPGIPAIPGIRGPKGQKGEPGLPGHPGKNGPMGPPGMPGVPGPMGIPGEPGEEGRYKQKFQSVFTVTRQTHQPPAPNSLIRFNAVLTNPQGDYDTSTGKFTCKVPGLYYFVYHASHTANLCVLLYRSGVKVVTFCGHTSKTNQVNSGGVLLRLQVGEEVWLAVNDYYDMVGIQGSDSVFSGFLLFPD
Protocol: The P329R mutation was previously described to reduce interaction of IgG1 antibodies with C1q and FcgR (Overdijk et al, Molecular Cancer Therapeutics 2020). The effect of the P329R mutation on C1q binding of IgG1-CD27-A comprising the E345R mutation was tested in cellular C1q binding assays in vitro using human healthy donor T cells. Anti-HIV gp120 antibody IgG1-b12-F405L was used as non-binding isotype control antibody (ctrl). […] T cells (2×10⁶ cells/well) were pre-incubated in polystyrene 96-well round-bottom plates with antibody dilution series (8× five-fold dilution starting at 15 μg/mL final assay concentration) for 15 min at 37° C. to allow the antibodies to bind to the T cells. Then, cells were cooled on ice, supplemented with NHS as a source of human C1q (20% NHS final assay concentration) and incubated on ice for 45 min. Cells were subsequently incubated on ice with FITC-labeled Rabbit anti-human C1q antibody (DAKO, Cat #F0254; 20 μg/mL) for 30 min and resuspended in FACS buffer with TO-PRO-3 (ThermoFisher, Cat #T3605; 1:5,000 dilution). C1q binding was determined by flow cytometry measuring the FITC signal on live cells.

EC50 (read off the curve) [1]: ~0.03 µg/mL | binding result [2]: no binding (tested: 10,000 nM) | binding result [3]: no binding (tested: 10,000 nM) | binding result [4]: no binding (tested: 15 µg/mL)
B1: IgG1-CD27-A-P329R-E345R (antibody)
heavy: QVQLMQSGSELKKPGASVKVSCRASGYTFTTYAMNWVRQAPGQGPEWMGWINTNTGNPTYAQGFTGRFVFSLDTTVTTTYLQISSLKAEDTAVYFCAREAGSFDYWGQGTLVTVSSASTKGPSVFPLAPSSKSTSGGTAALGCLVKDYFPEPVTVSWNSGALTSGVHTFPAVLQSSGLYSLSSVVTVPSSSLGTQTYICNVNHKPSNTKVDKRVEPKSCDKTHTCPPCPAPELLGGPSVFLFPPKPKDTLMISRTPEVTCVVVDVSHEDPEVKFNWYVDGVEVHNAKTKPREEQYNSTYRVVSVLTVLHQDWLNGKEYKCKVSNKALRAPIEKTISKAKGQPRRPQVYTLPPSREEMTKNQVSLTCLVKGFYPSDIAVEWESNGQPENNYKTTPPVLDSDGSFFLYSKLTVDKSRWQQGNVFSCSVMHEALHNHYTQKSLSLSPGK
light: QSALTQPASVSGSPGQSITISCTGTSSDVYYYNYVSWYQQHPGRAPKLVIYDVSNRPSGVSNRFSGSKSGNTASLTISGLRAEDEADYYCSSYTVNRVWVFGGGTKLTVLGQPKAAPSVTLFPPSSEELQANKATLVCLISDFYPGAVTVAWKADSSPVKAGVETTTPSKQSNNKYAASSYLSLTPEQWKSHRSYSCQVTHEGSTVEKTVAPTECS
notes: also called IgG1-CD27-A-E345R-P329R
